Results from article PMC12433258, “Binding Differences of the Peptide‐Substrate–Binding Domain of Collagen Prolyl 4‐Hydroxylases I and II for Proline‐ and Hydroxyproline‐Rich Peptides” (Proteins, 2025).

B1: (Pro)9 peptide (peptide)
peptide: PPPPPPPPP
notes: polyproline peptide of 9 residues, free amino and free carboxylate ends; printed as (Pro)9; also called P9; source: synthetic peptide; bought: TAG Copenhagen A/S
B2: PSB‐I^144–244 construct (longer PSB‐I construct of human C‐P4H‐I α‐subunit) (domain or fragment)
chain: FLTAEDCFELGKVAYTEADYYHTELWMEQALRQLDEGEISTIDKVSVLDYLSYAVYQQGDLDKALLLTKKLLELDPEHQRANGNLKYFEYIMAKEKDVNKSLEHHHHHH
notes: numbers count on: the mature protein (α-I subunit after cleavage of the signal peptide); C-terminal Leu-Glu-(His)6 tag; The C-terminal Leu-Glu-His6 tag is kept and is written as a part, not under tags; also called longer PSB‐I^144–244 variant
B3: PPG‐PPG‐PPG peptide (peptide)
peptide: PPGPPGPPG
notes: collagen-like model peptide, 9 residues, free amino and free carboxylate ends; also called (PPG)3; source: synthetic peptide; bought: TAG Copenhagen A/S
B4: PPG‐PAG‐PPG peptide (peptide)
peptide: PPGPAGPPG
notes: collagen-like model peptide, 9 residues, free amino and free carboxylate ends; also called PxGP‐peptide; source: synthetic peptide; bought: TAG Copenhagen A/S
B5: PPG‐PRG‐PPG peptide (peptide)
peptide: PPGPRGPPG
notes: as for B4
B6: PPG‐PEG‐PPG peptide (peptide)
peptide: PPGPEGPPG
notes: as for B4

Legend:
[1] = target: T1, PSB‐I^143–238 construct (peptide‐substrate–binding domain of the α‐I subunit of human collagen prolyl … (human, UniProt P13674 160-255)); test: ITC; 3 mM peptide titrated into 50 μM PSB‐I^143–238 in the cell; 20 mM Bis‐Tris, 100 mM glycine, pH 6.8; 25°C; one‐set‐of‐sites model with fixed stoichiometry (n = 1); three measurements; conditions: both partners purified
T1 construct: numbers count on: the mature protein (α-I subunit after cleavage of the signal peptide); Monomer by SEC-MALS; also called PSB‐I construct; PSB‐I domain; source: E. coli Rosetta(DE3)pLysS, pET22b(+), purified (Ni‐NTA, Superdex75 SEC); not shown: Leu-Glu-His6, C-terminal, kept
T1 sequence (P13674 160-255): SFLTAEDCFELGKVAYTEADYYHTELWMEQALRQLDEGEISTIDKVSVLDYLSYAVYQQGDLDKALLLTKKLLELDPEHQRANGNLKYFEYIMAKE

[2] = target: the molecule itself; test: crystal structure; PSB‐I^144–244 crystallized without peptide, hanging drop, 4°C; 1 M sodium citrate, 0.1 M CHES, pH 9.5; contact between crystallographically related chains

Binder | Kd [1] [µM] | dH [1] [kcal/mol] | binding result [2]
B1 | 80.9 | -9.5 | 
B2 |  |  | binds
B3 | 309 | -13.6 | 
B4 | 91.3 | -12.4 | 
B5 | 37 | -14.9 | 
B6 | 84.3 | -13.2 | 
